Measurements as given in PMC12324117.

Target: LRRC4B (453–576) protein (UniProt Q9NT99)
Test: ELISA; plates coated with LRRC4B (453–576) protein at 1 µg/ml in 50 mM carbonate buffer pH 9.6; FAM19A5 added; detected with HRP-conjugated C-A5-Ab; OD 450 nm (format as told for the CSF ELISA); n = 10 each

Sequence of UniProt Q9NT99 (Q9NT99 453-576): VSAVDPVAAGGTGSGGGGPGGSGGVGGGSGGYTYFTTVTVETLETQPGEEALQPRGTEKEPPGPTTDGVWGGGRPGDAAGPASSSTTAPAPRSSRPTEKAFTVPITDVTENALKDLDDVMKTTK

EC50 | Substance
2.56 nM | MT FAM19A5 protein (ELISA) (natural protein)
0.199 nM | WT FAM19A5 protein (ELISA) (natural protein)
